Laboratory results as given in patent publication US20240287501A1 (VIB VZW, published 2024).

Columns and labels:
[1] = target: T1, SXM1 (native, from EBY100 lysate) (Saccharomyces cerevisiae, UniProt Q04175 1-944); test: co-IP, Nb on NHS-agarose beads, EBY100 yeast lysate, SDS-PAGE
T1 construct: mature; Endogenous untagged protein; also called YDR395W
T1 sequence (looked up): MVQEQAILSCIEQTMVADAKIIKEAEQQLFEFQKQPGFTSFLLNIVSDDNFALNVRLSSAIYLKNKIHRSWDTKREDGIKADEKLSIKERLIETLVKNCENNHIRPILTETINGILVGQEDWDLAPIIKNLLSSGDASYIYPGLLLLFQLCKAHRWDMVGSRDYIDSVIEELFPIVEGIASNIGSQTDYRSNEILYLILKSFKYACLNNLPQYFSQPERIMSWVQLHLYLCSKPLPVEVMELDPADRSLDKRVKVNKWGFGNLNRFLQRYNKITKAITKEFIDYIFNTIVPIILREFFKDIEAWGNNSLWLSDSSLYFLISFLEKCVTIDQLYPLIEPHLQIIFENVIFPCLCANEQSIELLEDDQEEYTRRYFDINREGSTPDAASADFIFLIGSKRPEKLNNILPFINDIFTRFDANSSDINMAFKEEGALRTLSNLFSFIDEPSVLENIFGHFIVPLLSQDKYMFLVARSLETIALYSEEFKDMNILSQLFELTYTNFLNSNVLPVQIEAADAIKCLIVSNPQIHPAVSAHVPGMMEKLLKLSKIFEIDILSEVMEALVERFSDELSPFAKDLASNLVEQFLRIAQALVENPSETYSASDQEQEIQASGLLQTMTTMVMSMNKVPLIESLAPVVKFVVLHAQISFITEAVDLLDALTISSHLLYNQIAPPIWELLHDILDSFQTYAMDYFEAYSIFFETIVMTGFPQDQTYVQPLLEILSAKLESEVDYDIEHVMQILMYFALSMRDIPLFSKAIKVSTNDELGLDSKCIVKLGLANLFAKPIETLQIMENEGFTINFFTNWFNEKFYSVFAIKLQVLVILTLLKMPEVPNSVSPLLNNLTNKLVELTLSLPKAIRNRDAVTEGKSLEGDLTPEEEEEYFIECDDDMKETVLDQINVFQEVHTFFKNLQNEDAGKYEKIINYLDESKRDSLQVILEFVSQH

[2] = target: T2, GFP-tagged SXM1 (Saccharomyces cerevisiae, UniProt Q04175 1-944); test: co-immunoprecipitation, Nb coupled to NHS-agarose beads, lysate of the yeast strain expressing the GFP-tagged target, Western blot anti-GFP
T2 construct: Yeast GFP Fusion Collection strain; also called Yeast GFP fusion collection GFP(+)04, H9; not shown: GFP tag
T2 sequence (looked up): T1 sequence (looked up)
Protocol: One SXM1-specific Nanobody (30=Nb clone CA17530 corresponding to SEQ ID NO: 18) was characterized by co-immunoprecipitation assays. The SXM1-specific Nanobody was covalently linked to NHS-agarose beads. The beads that were functionalized with this SXM1-specific Nanobody were incubated for an hour at 4° C. on a rotating device with either an EBY100 lysate or the lysate of the engineered Yeast strain expressing SXM1 GFP(+)04, H9) as a GFP-tagged protein. After washing, these beads were resuspended in SDS-PAGE loading dye and analyzed on SDS-PAGE (FIG. 9A). Separated proteins were transferred to a PVDF membrane and the Western blot (FIG. 9B) was developed with GFP-specific antibody to confirm the presence of GFP-tagged SXM1.

[3] = target: T3, Rat Vesicular GLUtamate Transporter 1 (full-length, HEK293T lysate of Example 7) (rat, UniProt Q62634 1-560); test: NANEX: capture from DDM lysate of HEK293T cells, elution with the same Nb
T3 construct: mature; Produced in HEK293T cells as published (Schenck et al., 2017), solubilised in DDM; also called rVGLUT1; rat VGLUT1
T3 sequence (looked up): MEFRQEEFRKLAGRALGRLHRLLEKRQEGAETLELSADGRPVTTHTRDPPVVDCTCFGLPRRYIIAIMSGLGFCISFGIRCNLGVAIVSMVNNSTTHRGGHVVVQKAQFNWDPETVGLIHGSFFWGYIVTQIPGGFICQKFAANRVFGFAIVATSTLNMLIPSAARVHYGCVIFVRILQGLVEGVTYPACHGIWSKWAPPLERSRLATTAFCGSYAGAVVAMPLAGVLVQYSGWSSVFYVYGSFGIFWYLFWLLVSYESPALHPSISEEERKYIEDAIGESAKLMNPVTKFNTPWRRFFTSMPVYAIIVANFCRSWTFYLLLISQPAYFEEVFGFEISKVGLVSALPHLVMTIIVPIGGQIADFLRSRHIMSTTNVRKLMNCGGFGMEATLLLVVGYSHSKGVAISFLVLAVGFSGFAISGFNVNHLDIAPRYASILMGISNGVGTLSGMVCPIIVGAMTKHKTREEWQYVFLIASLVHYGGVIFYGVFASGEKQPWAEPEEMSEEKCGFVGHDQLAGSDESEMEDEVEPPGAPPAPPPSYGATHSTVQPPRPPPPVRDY

[4] = target: T4, SIS1 (native, from EBY100 lysate) (Saccharomyces cerevisiae, UniProt P25294 1-352); test: co-IP, Nb on NHS-agarose beads, EBY100 yeast lysate, SDS-PAGE
T4 construct: mature; Endogenous untagged protein; also called YNL007C
T4 sequence (looked up): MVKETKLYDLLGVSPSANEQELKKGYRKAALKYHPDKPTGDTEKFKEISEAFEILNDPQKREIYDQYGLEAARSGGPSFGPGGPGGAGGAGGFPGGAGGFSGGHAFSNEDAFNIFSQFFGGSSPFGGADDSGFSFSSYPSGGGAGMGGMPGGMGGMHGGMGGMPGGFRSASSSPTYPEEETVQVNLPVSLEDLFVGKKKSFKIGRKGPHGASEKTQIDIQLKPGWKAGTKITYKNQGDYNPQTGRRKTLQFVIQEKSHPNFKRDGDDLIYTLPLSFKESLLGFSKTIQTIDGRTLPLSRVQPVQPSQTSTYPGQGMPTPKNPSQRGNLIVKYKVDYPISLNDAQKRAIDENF

[5] = target: T5, GFP-tagged SIS1 (Saccharomyces cerevisiae, UniProt P25294 1-352); test: co-immunoprecipitation, Nb coupled to NHS-agarose beads, lysate of the yeast strain expressing the GFP-tagged target, Western blot anti-GFP
T5 construct: Yeast GFP Fusion Collection strain; also called Yeast GFP fusion collection GFP(+)22, E5; not shown: GFP tag
T5 sequence (looked up): T4 sequence (looked up)
Protocol: One SIS1-specific Nanobody (44=Nb clone CA17444 corresponding to SEQ ID NO: 9), three ALD6-specific Nanobodies (53=CA17453-SEQ ID NO: 10, 54=CA17454-SEQ ID NO: 11, 60=CA17460-SEQ ID NO: 12), two BMH1-specific Nanobodies (58=CA17458-SEQ ID NO: 13, 59=CA17459-SEQ ID NO: 14) were characterized by co-immunoprecipitation assays. Each target-specific Nanobodies was covalently linked to NHS-agarose beads. The beads that were functionalized with these target-specific Nanobodies were incubated for an hour at 4° C. on a rotating device with either an EBY100 lysate or the lysate of the engineered Yeast strain expressing the target (Yeast GFP fusion collection reference for SIS1: GFP(+)22, E5, for ALD6: GFP(+)15, F1, for BMH1: GFP(+)27, D5) as a GFP-tagged protein. After washing, these beads were resuspended in SDS-PAGE loading dye and analyzed on SDS-PAGE (FIG. 8A). Separated proteins were transferred to a PVDF membrane and the Western blot (FIG. 8B) was developed with GFP-specific antibody to confirm the presence of GFP-tagged targets.

[6] = target: T6, BMH1 (native, from EBY100 lysate) (Saccharomyces cerevisiae, UniProt P29311 2-267); test: co-IP, Nb on NHS-agarose beads, EBY100 yeast lysate, SDS-PAGE
T6 construct: mature; Endogenous untagged protein; also called YER177W
T6 sequence (looked up): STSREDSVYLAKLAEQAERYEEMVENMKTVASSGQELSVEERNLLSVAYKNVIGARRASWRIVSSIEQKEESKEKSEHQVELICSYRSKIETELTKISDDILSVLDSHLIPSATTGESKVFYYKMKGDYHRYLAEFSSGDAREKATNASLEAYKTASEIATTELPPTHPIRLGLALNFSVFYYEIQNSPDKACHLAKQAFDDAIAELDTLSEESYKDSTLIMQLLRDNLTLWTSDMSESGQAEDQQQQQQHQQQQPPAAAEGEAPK

[7] = target: T7, GFP-tagged BMH1 (Saccharomyces cerevisiae, UniProt P29311 2-267); test: co-IP, Nb on NHS-agarose beads, lysate of GFP-fusion yeast strain, SDS-PAGE and anti-GFP Western blot
T7 construct: Yeast GFP Fusion Collection strain; also called Yeast GFP fusion collection GFP(+)27, D5; not shown: GFP tag
T7 sequence (looked up): T6 sequence (looked up)
Text: After washing, these beads were resuspended in SDS-PAGE loading dye and analyzed on SDS-PAGE (FIG. 8A). Separated proteins were transferred to a PVDF membrane and the Western blot (FIG. 8B) was developed with GFP-specific antibody to confirm the presence of GFP-tagged targets.
For each target selection of binders in this example, as detailed in Table 2, after 3 rounds of selection by panning using NANEX technology, individual clones were isolated from the enriched sub-library by plating tenfold serial dilutions of the overnight-grown phage-infected E. coli TG1 cells in LB. 96 individual clones were picked and grown in a 96-well plate containing LB supplemented with 100 μg/ml ampicillin. Plasmids containing the Nanobody encoding genes were purified, sequenced and grouped into sequence families (Material and methods). A representative member of each sequence family was selected. Their encoding plasmid was transformed into the E. coli WK6 expression strain to express and purify each Nanobody of interest. […] After washing, these beads were resuspended in SDS-PAGE loading dye and analyzed on SDS-PAGE (as in the Figure specified in Table 2 for each target). […] For each target-specific Nanobody analysed in this way, the co-immunoprecipitation with the EBY100 lysate gives a predominant band corresponding to the expected molecular weight of the target protein. […]

B1: CA17530 (VHH)
VHH: QVQLVESGGGLVQTGGSLRLSCVVSKTLFSINAMAWYRQSPGKPRELVAGWTSGGRTSYGDSVKGRFTISRDNAENTLYLQMNDVKPEDTAVYHCAADYLVVAGKPGYDYAYWGQGTQVTVSS
notes: C-terminal 6xHis-EPEA tag is part of the entry
B1: binds [1]; binds [2].

B2: CA17875 (VHH)
VHH: QVQLQESGGGLVQAGGSLRLSCAASGRSVRTWSMGWFRQPPGKERELVAGISWSGSGTYHADSVKGRFTISRDNAKNMVYLQMNSLKPEDTAVYYCAAGQTGWNPGSDFHRWGKGTQVTVSS
notes: C-terminal 6xHis-EPEA tag is part of the entry; also called rVGLUT1-specific trapper/stripper
B2: binds [3].

B3: CA17444 (VHH)
VHH: QVQLVESGGGLVQPGGSLRLSCAASGFTLDYYAIGWFRQAPGKEREGVSCISSSDGSTVYADSVKGRFTISRDNAKNTVYLQMSNLKPEDTAVYYCATDQITSTGCPDFDSWGQGTQVTVSS
notes: as for B1
B3: binds [4]; binds [5].

B4: CA17459 (VHH)
VHH: QVQLVESGGGEVQTGGSLRLSCTASGSRLNFGSWNWYRKRGENYRELVAAMGPSTGHTHYGDSMKGRVTISLNAAKDTLFLQMNSLKPEDTAVYYCAADLDGLGFPRGSFYGMDYWGKGTQVTVSS
notes: as for B1
B4: binds [6]; binds [7].
